Reference: patent US20170355730A1 (ENTRADA THERAPEUTICS, published 2017)
Starred links: 1 amine or outer side, 2 acyl side, 3 side chain; linkers in the order of their positions; H or OH if unused. Non-standard residues stand in square brackets, D forms with d. Primed or numbered codes have the meaning given here. No end group written: not given here. *: point of attachment. FITC = O=C1OC2(c3ccc(O)cc3Oc3cc(O)ccc32)c2ccc(NC(=S)*)cc21; Trimesoyl = O=C(c1cc(C(=O)[*:2])cc(C(=O)[*:3])c1)[*:1]; F2Pmp = N[C@@H](Cc1ccc(C(F)(F)P(=O)(O)O)cc1)C(=O)O; Phe(4-F) = N[C@@H](Cc1ccc(F)cc1)C(=O)O; dPhe(4-F) = N[C@H](Cc1ccc(F)cc1)C(=O)O; 2Nal = N[C@@H](Cc1ccc2ccccc2c1)C(=O)O; Pip′ = L-homoproline (pipecolyl); AMC = Cc1cc(=O)oc2cc(N*)ccc12; Phg = N[C@H](C(=O)O)c1ccccc1; Nle = CCCC[C@H](N)C(=O)O; Abu = CC[C@H](N)C(=O)O; Dap = NC[C@H](N)C(=O)O; Butyryl = CCCC(=O)*

B1: peptide 3 (Table 10, caspase 3/7 substrate) (peptide)
peptide: Ac-D[Nle][Abu]D-{AMC}
SMILES: CCCC[C@H](NC(=O)[C@H](CC(=O)O)NC(C)=O)C(=O)N[C@@H](CC)C(=O)N[C@@H](CC(=O)O)C(=O)Nc1ccc2c(C)cc(=O)oc2c1
B2: peptide 7 (Table 10, R9 conjugate) (peptide)
peptide: Ac-RRRRRRRRRD[Nle][Abu]D-{AMC}
SMILES: CCCC[C@H](NC(=O)[C@H](CC(=O)O)NC(=O)[C@H](CCCNC(=N)N)NC(=O)[C@H](CCCNC(=N)N)NC(=O)[C@H](CCCNC(=N)N)NC(=O)[C@H](CCCNC(=N)N)NC(=O)[C@H](CCCNC(=N)N)NC(=O)[C@H](CCCNC(=N)N)NC(=O)[C@H](CCCNC(=N)N)NC(=O)[C@H](CCCNC(=N)N)NC(=O)[C@H](CCCNC(=N)N)NC(C)=O)C(=O)N[C@@H](CC)C(=O)N[C@@H](CC(=O)O)C(=O)Nc1ccc2c(C)cc(=O)oc2c1
B3: peptide 8 (Table 10, CAL-PDZ inhibitor), reduced linear form (peptide)
peptide: {FITC}-CRRRRFWQCTRV
modifications: also: disulfide reduced by TCEP (free thiols)
notes: As assayed in the presence of 2 mM tris(carboxylethyl)phosphine
B4: peptide 37 (Table 18) (peptide)
peptide: Trimesoyl-[dPhe(4-F)][Phe(4-F)][dT][Pip′][2Nal]RA[dF][Dap]F[2Nal]RRRR[Dap]K
modifications: linker (positions not given here) via Trimesoyl; not fully specified (bridges); printed as bicyclo[Tm-(D-4-Fpa-Fpa-D-Thr-Pip-Nal-Arg-Ala-D-Phe)-Dap-(Phe-Nal-Arg-Arg-Arg-Arg-Dap)]-Lys
B5: Monocyclic Inhibitor 1 (peptide)
peptide: cyclo([dT][dN][dV][F2Pmp][dA]RRRR[2Nal]FQ)
SMILES: CC(C)[C@H]1NC(=O)[C@@H](CC(N)=O)NC(=O)[C@@H]([C@H](C)O)NC(=O)[C@H](CCC(N)=O)NC(=O)[C@H](Cc2ccccc2)NC(=O)[C@H](Cc2ccc3ccccc3c2)NC(=O)[C@H](CCCNC(=N)N)NC(=O)[C@H](CCCNC(=N)N)NC(=O)[C@H](CCCNC(=N)N)NC(=O)[C@H](CCCNC(=N)N)NC(=O)[C@@H](C)NC(=O)[C@H](Cc2ccc(C(F)(F)P(=O)(O)O)cc2)NC1=O

Legend:
[1] = target: T1, ybbR-tagged PTP1B catalytic domain (amino acids 1-321) (UniProt P18031 1-321, Texas Red attached through CoA/Sfp to the ybbR tag (library screening only)); assay: cell-based or functional assay
T1 sequence: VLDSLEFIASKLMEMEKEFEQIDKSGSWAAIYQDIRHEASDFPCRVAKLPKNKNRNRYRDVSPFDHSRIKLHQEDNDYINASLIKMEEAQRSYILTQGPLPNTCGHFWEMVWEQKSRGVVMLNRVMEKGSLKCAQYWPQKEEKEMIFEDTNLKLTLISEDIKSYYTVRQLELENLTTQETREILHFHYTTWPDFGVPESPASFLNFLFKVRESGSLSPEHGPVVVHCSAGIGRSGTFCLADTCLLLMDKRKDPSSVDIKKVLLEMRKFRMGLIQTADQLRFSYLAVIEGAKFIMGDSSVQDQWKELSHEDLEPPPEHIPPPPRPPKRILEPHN

[2] = target: T2, Caspase-3, Human, recombinant protein (human, UniProt P42574 29-277, limits assumed); assay: cell-based or functional assay
T2 sequence (looked up): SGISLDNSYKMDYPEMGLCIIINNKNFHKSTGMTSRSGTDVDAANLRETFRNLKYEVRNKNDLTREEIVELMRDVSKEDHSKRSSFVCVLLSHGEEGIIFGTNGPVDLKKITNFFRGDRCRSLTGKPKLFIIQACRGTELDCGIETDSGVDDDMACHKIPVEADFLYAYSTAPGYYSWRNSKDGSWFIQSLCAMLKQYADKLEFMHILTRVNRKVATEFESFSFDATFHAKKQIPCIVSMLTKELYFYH

[3] = target: T2, Caspase-3, Human, recombinant protein; assay: cell-based or functional assay; remark: listed apart in the source
[4] = target: CAL-PDZ domain (UniProt Q9HD26 286-370); assay: fluorescence anisotropy, FITC-labeled peptide, in the presence of 2 mM tris(carboxylethyl)phosphine
[5] = target: Pin4 (human, UniProt Q9Y237 1-131, limits assumed); assay: cell-based or functional assay
Chain of Pin4 (Q9Y237 whole entry, the tested form may be a part): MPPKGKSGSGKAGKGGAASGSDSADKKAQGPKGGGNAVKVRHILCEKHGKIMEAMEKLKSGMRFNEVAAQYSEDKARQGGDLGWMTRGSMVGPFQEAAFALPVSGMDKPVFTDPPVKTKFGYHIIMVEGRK

[6] = target: T1, ybbR-tagged PTP1B catalytic domain …; assay: PTP1B-catalyzed pNPP hydrolysis, competitive inhibition (Lineweaver-Burk and secondary plot)

Row | Binder | IC50 (inhibition of pNPP hydrolysis) [1] [nM] | ΔFU/min [2] | further results
1 | cyclo(IP[Phg][F2Pmp][Nle]RRRR[2Nal]FQ) [Monocyclic Inhibitor 3] | ~200 |  | 
2 | B1 |  | 159 ΔFU/min | 
3 | B2 |  | 45.3 ΔFU/min | decrease of activity relative to peptide 3 [3]: 72%
4 | B3 |  |  | Kd [4]: 489 nM
5 | Butyryl-RRRR[2Nal]FD[Nle][Abu]D-{AMC} [peptide 6 (Table 10, linear control)] |  | 74.7 ΔFU/min | decrease of activity relative to peptide 3 [3]: 53%
6 | B4 |  |  | IC50 of Pin4 isomerase activity [5]: ~34000 nM
7 | B5 | ~100 |  | 
8 | cyclo(S[dV]P[F2Pmp]HRRRR[2Nal]FQ) [Monocyclic Inhibitor 2] | ~30 |  | Ki [6]: 54 nM
